Data as given in patent publication US20180214548A1 (SHANGHAI YUNYI HEALTHCARE AND TECHNOLOGY, published 2018).

B1: chimeric anti-PD-1 antibody 21G8F11 (antibody, V domains shown)
VH: EVQLLESGGGLAQPGGSLRLSCAASGFSFNTYLMHWVRQAPGKGLEWVSAISGGGGNTYYADSVKGRFTISRDNSKNTLYLQMNSLRAEDTAVYYCAKENRIPVAPFDYWGQGTLVTVSS
VL: DIQMTQSPSTLSASVGDRVTITCRASQSISTWLAWYQQKPGKAPKLLIYKASSLESGVPSRFSGSGSGTEFTLTISSLQPDDLATYYCQQYNSFSWTFGQGTKVEIK
notes: Purified from hybridoma of Harbour H2L2 mice: human variable regions, rat constant regions
B2: chimeric anti-PD-1 antibody 76G5B3 (antibody, V domains shown)
VH: QVQLVESGGGVVQPGRSLRLSCAASGFTFSDYGFHWVRQAPGKGLEWVAVIWYDGSNEYYTDSVKGRFTISRDNSKNTLYLQMNSLRAEDTAMYFCVVNPFDYWGQGTLVTVSS
VL: DIQMTQSPSSLSAFVGDRVTITCRASQGINHYLAWYQQKPGKAPNLLILAASTLLSGVPSRFGGRGSGTDFTLIISSLQPEDVATYYCQKYDSAPYTFGQGTKLEIK
notes: as for B1
B3: chimeric anti-PD-1 antibody 32B5C7 (antibody, V domains shown)
VH: EVQLLESGGGLVQPGGSLRLSCAASGFTFSSYAMSWVRQAPGKGLEWVSTISGSGGTTYYADSVKGRFTISRDNSKNTLYLQMNSLRAEDTAVYYCTLTGDPDYWGQGTLVTVSS
VL: EIVLTQSPATLSLSPGERATLSCRASQSVSSYLAWYQQKPGQAPRLLIYDASKRATGIPARFSGSGSGTDFTLTISSLEPEDFAVYYCQQRNNWPLTFGGGTKVEIK
notes: as for B1

Assays:
[1] = biological target: T1, human PD-1^ECD-hFc protein (Immunogen A) (human, UniProt Q15116 25-167); assay: ELISA, coated human PD-1ECD-hFc; antibody 0.001 nM
T1 construct: Biotinylated for the Octet assay; also called PD-1-hFc; hPD-1^ECD-hFc; not shown: human IgG Fc fragment (hFc)
T1 sequence (Q15116 25-167): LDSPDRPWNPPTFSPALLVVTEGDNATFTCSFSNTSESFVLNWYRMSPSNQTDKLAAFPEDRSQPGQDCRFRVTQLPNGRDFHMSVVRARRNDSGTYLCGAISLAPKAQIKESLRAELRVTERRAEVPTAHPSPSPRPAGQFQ
Procedure: (§1) 100 uL of the diluted recombinant proteins were added to each well of 96-well plate. The plates were sealed with plastic film and incubated at 4° C. overnight. The plates were washed twice with wash buffer (PBS+0.01% (v/v) Tween20), and incubated with blocking buffer (PBS+0.01% (v/v) Tween20+1% (w/w) BSA) at room temperature for 2 hours. The blocking buffer was aspirated away, and 100 uL of purified anti-PD-1 antibodies were added to each well and incubated for 2 hours at 37° C. The plates were washed three times with wash buffer (PBS+0.01% (v/v) Tween20). HRP-conjugated secondary antibody (Sigma) was added to each well and incubated for 2 hours at 37° C. After the plates were washed three times with wash buffer, 100 uL TMB substrate was added to each well and incubated for 30 minutes at room temperature. 100 uL stop solution (0.1N HCl) was added to each well to stop the reaction. The absorbance at 450 nm was measured with an ELISA plate reader (384plus SpectraMax, Molecular Devices).

[2] = biological target: T1, human PD-1^ECD-hFc protein (Immunogen A); assay: ELISA, coated human PD-1ECD-hFc; antibody 0.0001 nM
Procedure: as §1

[3] = biological target: T1, human PD-1^ECD-hFc protein (Immunogen A); assay: ELISA, coated human PD-1ECD-hFc; antibody 0.00001 nM
Procedure: as §1

[4] = biological target: T2, full length human PD-1 on cells (human, UniProt Q15116 25-288); assay: flow cytometry, CHO-K1-hPD-1 cells; antibody 3.16 nM
T2 construct: Also used here for PD-1 on human T cells/PBMC; also called CHO-K1-hPD-1; hPD-1
T2 sequence (Q15116 25-288 limits assumed): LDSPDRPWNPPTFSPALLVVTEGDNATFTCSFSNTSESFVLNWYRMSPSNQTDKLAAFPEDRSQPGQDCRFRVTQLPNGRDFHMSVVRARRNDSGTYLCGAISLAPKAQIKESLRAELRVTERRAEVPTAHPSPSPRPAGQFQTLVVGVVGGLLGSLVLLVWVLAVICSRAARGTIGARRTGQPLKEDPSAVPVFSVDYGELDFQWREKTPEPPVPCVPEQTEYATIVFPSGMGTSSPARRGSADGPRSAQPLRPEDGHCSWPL
Description: (§2) CHO-K1 cells were stably transfected with pIRES plasmid containing the nucleic acid sequence encoding full length human PD-1 (see Example 2, step 2) to generate CHO-K1 cells stably expressing human PD-1 (herein referred to as CHO-K1-hPD-1 cells). Other CHO-K1 were stably transfected with pIRES plasmid containing the nucleic acid sequence encoding full length cyno PD-1 to generate CHO-K1 cells stably expressing cyno PD-1 (herein referred to as CHO-K1-cPD-1 cells). CHO-K1-hPD-1 and CHO-K1-cPD-1 cells were cultured and expanded in T-75 culture flasks to 90% confluence. The culture media was aspirated, and the cells were washed twice with HBSS (Hanks Balanced Salt Solution, Invitrogen). The cells were treated with enzyme-free cell dissociation solution (Versene solution, Invitrogen) and collected. The cells were then washed twice with HBSS, cell counts were determined, and cells were resuspended with HBSS at 2×10⁶ cells/mL. Goat serum was added to the cell suspension to a final concentration of 1%, and the cells were blocked for 30 minutes on ice and then washed twice with HBSS. The cells were collected after centrifugation and resuspended in FACS buffer (HBSS+1% BSA, v/v) at 2×10⁶ cells/mL. 100 uL of the cell suspension were then added to each well of 96-well plate. 100 uL of purified anti-PD-1 antibodies from Example 2 were added to each well of the 96-well plate and incubated for 2 hours on ice. […] The samples were washed three times with FACS buffer, and 100 uL fixation buffer (4% paraformaldehyde v/v) were added to each well and incubated for 10 minutes. The cells were then washed twice with FACS buffer and resuspended in 100 uL FACS buffer. The mean fluorescence intensity (MFI) was determined using FACS Calibur (BD), and the results are shown in FIGS. 7-8 and in Tables 10-11.

[5] = biological target: T2, full length human PD-1 on cells; assay: flow cytometry, CHO-K1-hPD-1 cells; antibody 0.0316 nM
Description: as §2

[6] = biological target: T2, full length human PD-1 on cells; assay: cell-based receptor-ligand blocking, flow cytometry: CHO-K1-hPD-1 cells, blocked ligand biotinylated PD-L2-Fc, streptavidin-Alexa 488
Procedure: CHO-K1-hPD-1 cells were cultured and expanded in T-75 culture flasks to 60-80% confluence. The culture media was aspirated, and the cells were washed twice with PBS. The cells were treated with TrypLE™ Express (Invitrogen) and collected. Trypsin was neutralized by the addition of 8 mL culture medium, and cell counts were determined. […] The cells were blocked for 15 minutes at 37° C. Meanwhile, the wells of 96-well round-bottom plates were blocked with 200 uL blocking buffer for 1 hour at 37° C. The blocking buffer was discarded, and 200 uL cells were dispensed to each well of the 96-well plates (2×10^5 cells/well). The plates were centrifuged at 500 g for 5 minutes, and the supernatants were discarded. The cells were resuspended in 100 uL antibody prepared in blocking buffer. […] The plates were incubated at 4° C. for 90 minutes and washed twice with 200 uL blocking buffer. […] The plates were washed three times with blocking buffer and resuspended in 200 uL blocking buffer. The mean fluorescence intensity (MFI) was determined using FACS Calibur (BD).

Binder | OD450 nm [1] | OD450 nm [2] | OD450 nm [3] | Mean fluorescence intensity [4] | Mean fluorescence intensity [5] | IC50 (read off the curve) [6] [nM]
B1 | 0.468 | 0.433 | 0.405 | – | – | –
B2 | – | – | – | 280 | 2.2 | ~2
B3 | – | – | – | 97.5 | 2.1 | –
